Results from the nanobody polyreactivity screen of Harvey et al. (2022).

Assay: yeast display, Sf9 membrane polyspecificity reagent, FACS + sequencing; frameworks hold sequencing errors
In short: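 Nanobodies came from a synthetic yeast display library in Saccharomyces cerevisiae BJ5465, induced with galactose for 36–48 hours and stained for 1 hour at 4 °C with 10% biotinylated, detergent-solubilized Sf9 membrane reagent. Cells were enriched on streptavidin microbeads and then FACS-sorted, with low and high (top ~1%) gates set on anti-HA fluorescence for expression and streptavidin fluorescence for reagent binding. Each polyreactivity label reflects the gate a clone came from. Genes were amplified by colony PCR, sequenced by MiSeq 2 × 250 and filtered by CDR length.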

| Sequence | polyreactivity (PSR sort gate) |
| --- | --- |
| QVQLVESGGGLVQAGGSLRLSCAASGRIFTHNAMGWYRQAPGKERELVAAISYSGVSTYYADSVKGRFTISRDNAKNTVYLQMNSLKPEDTAVYYCAARSRSWRQRYGDFDYWGQGTQVTVSS | low polyreactivity |
| QVQLVESGGGLVQAGGSLRLSCAASGRIFTHNAMGWYRQAPGKERELVAAISYSGVSTYYADSVKGRFTISRDNAKNTVYLQMNSLKPEDTAVYYCNALIQSWRARIRRYYWGQGTQVTVSS | low polyreactivity |
| QVQLVESGGGLVQAGGSLRLSCAASGRIFTINAMGWYRQAPGKERELVATISDRGGSTYYADTVKGRFTISRDNAKNTVYLQMNSLKPEDTAVYYCAARWGRGLEFDYWGQGTQVTVSS | high polyreactivity |
| QVQLVESGGGLVQAGGSLRLSCAASGRIFTIYAMGWYRQAPAKARELVAAISDRGTRTYYADSVKGRFTISRDNAKNTVFLKMNSLKPEDTAVYYCASDALYTYGYDYWGKGTQVTVSS | low polyreactivity |
| QVQLVESGGGLVQAGGSLRLSCAASGRIFTLYAMGWYRQAPGKEREFVAAINRGGSTNYADSVKGRFTISRDNAKNTVYLQMNSLKPEDTAVYYCAAKTTSRFRTYSYDYWGQGTQVTVSS | high polyreactivity |
| QVQLVESGGGLVQAGGSLRLSCAASGRIFTLYAMGWYRQAPGKERELVAGISRSGGSTYYADSVKGRFTISRDNAKNTVYFQMNSLKPEDTAVYYCNAVPIYYAWRRNKPFDYWGQGTQVTVSS | low polyreactivity |
| QVQLVESGGGLVQAGGSLRLSCAASGRIFTLYTMGWYRQAPGKERELVAAINRGGSTTYADSVKGRFTISRDNAKNTVYLQMNSLKPEDTAVYYCAAYRYTSRVYSYWRGYDYWGQGTQVTVSS | high polyreactivity |
| QVQLVESGGGLVQAGGSLRLSCAASGRIFTNNPMGWYRQAPGQERELVAAISRSGGRTYYADSVKGRFTISRDNAKNTVYLQRNCLKPEDTAVYYCAAVHLYYGYNSPFTMDYWGQGTQVTVSS | high polyreactivity |
| QVQLVESGGGLVQAGGSLRLSCAASGRIFTPYAMGWYRQAPGKEREFVATISFRGDSTYYADSVKGRFTISRDNAKNSVYLQMNSLKPEDTAVYYCAARQYGGYGYWGQGTQVTVSS | high polyreactivity |
| QVQLVESGGGLVQAGGSLRLSCAASGRIFTPYAMGWYRQAPGKERELVAAISSSGGSTYYADSVKGRFTISRDNAKNTVYLQMNSLKPEDTAVYYCAAVHYRHVRYDYWGQATQVTVSS | high polyreactivity |
| QVQLVESGGGLVQAGGSLRLSCAASGRIFTPYAMGWYRQAPGKERELVAVIRDGSTYYADSVKGRFTISRDNAKNTVYLQMNSLKPEDTAVYYCAVRHRYTRAYWGRDYWGQGTQVTVSS | low polyreactivity |
| QVQLVESGGGLVQAGGSLRLSCAASGRIFTPYAMGWYRQARGKEREVVAVIRDGSTYYADSVKGSFTISRDNAKNTVYLQMNSLKPEDTAVYYCRYDIWVWWSGAYDYWGQGTQVTVSS | low polyreactivity |
| QVQLVESGGGLVQAGGSLRLSCAASGRIFTQNAMGWNRQAPGKERELVAAISYSGVSTYYADSVKGRFTISRDNAKNTVYLQMNSLKPEDTAVFYCARRYWYPDAFYRYDYWGLGTQVTVSS | low polyreactivity |
| QVQLVESGGGLVQAGGSLRLSCAASGRIFTQYAMGWYRPPPGKERELVAAINASDGSTYADSVKGRFTISRDNAKNTVYLQMKSLKPEDTAVYYCNVTGGPYDFTRWSEFDHWGQGTQVTVSS | low polyreactivity |
| QVQLVESGGGLVQAGGSLRLSCAASGRIFTRYAMGWYRKEPGKERELVAAISYGGGGTYYADSVKGRFTISRDNAKNTVYLQMNSLKPEDTAVYYCATDDPLSQINEQGMDYWGQGTQVTVSS | low polyreactivity |
| QVQLVESGGGLVQAGGSLRLSCAASGRIFTRYAMGWYRPAPGKERELVAVIRYSGGSTYYADSVKGRFTISRDNAKNTVYLQMNSLKPEDTAVYYCAAYARGVRRYRRYDYWGQGTQVTVSS | high polyreactivity |
| QVQLVESGGGLVQAGGSLRLSCAASGRIFTRYAMGWYRQAPGKERELVAAISYGGGGTYYADSVKGRFTISRDNAKNTVYLQMNSLKPEDTAVYYCATDDPLSQINEQGMDYWGQGTQVTVSS | low polyreactivity |
| QVQLVESGGGLVQAGGSLRLSCAASGRIFTRYAMGWYRQAPGKERELVAAITQRGGTTYYADSVKGRFTISRDNAKNTVYLQMNSLKPEDTAVDYCATRYRYYTERDYWGQGTQVTVSS | high polyreactivity |
| QVQLVESGGGLVQAGGSLRLSCAASGRIFTRYAMGWYRQAPGKERELVATISRGGNTNYADSVKGRFTISRDNAKNTVYLQMNSLKPEDTAVYYCAKYPVSRVGGYGYWGQGTQVTVSS | low polyreactivity |
| QVQLVESGGGLVQAGGSLRLSCAASGRIFTRYAMGWYRQAPGKERELVAVITRSGGSTYYADSVKGRFTISRDNAKNTVYLQMNSLKPEDTAVYYCAAKYYGEMYYWGQGTQVTVSS | low polyreactivity |
| QVQLVESGGGLVQAGGSLRLSCAASGRIFTRYAMGWYRQAPGKERELVAVITRSGGSTYYADSVKGRFTLSRDNAKNTVYLQMNSLKPEDTAVYYCAAKYYGEMYYWGQGTQVTVSS | low polyreactivity |

| Sequence | polyreactivity (PSR sort gate) |
| --- | --- |
| QVQLVESGGGLVQAGGSLRLSCAASGRIFTRYTMGWYRQAPGKERQLVASITSSGSSSYYADSVKGRFTISRDYAKNTVYLQMNSLKPEDTAVYYCAARSRLRYLYDYWGHGTQVTVSS | high polyreactivity |
| QVQLVESGGGLVQAGGSLRLSCAASGRIFTSNAMGWYRQAPGKERELVAAINRSGGRTYYADSVKGRFTISRDNAKNTVYLQMNSLKPEDTAVYYCNKVPYVFGFAASDYWGQGTQVTVSS | high polyreactivity |
| QVQLVESGGGLVQAGGSLRLSCAASGRIFTSNTMGWYRPAPGKERELVAAITSSGGSMYYADSVKGRFTISRDNAKNTVYIQMNSLKPEDTAVYYCAARNYFWGQGTQVTVSS | low polyreactivity |
| QVQLVESGGGLVQAGGSLRLSCAASGRIFTSYAMGWYRQAPGKEREFVAAITKSGGSTYYADSVKGRFTISRDNAKNTVYLQMNSLKPEDTAVYYCAVEGWDVYQDPYLYDYWGQGTQVTVSS | low polyreactivity |
| QVQLVESGGGLVQAGGSLRLSCAASGRIFTTNAMGWYRQAPGKERELVASISKSGGSTYYADSVKGRFTISRDTAKNTVYLQMNSLKPEDTAVYYCAASSYSTSYIRGDYWGQGTQVTVSS | low polyreactivity |
| QVQLVESGGGLVQAGGSLRLSCAASGRIFTTYAMGWYRQAPGKERELVARITLSAGRTYYADSVKGRFTISRDNAKYSVYLQMNSLKPEDTEVYYCAAEGFYRSSPVRTYIGYDYWGQGTQVTVSS | high polyreactivity |
| QVQLVESGGGLVQAGGSLRLSCAASGRIFTTYVMGWYRQAPGKERELVAAISARGSTYYADSVKGRFTISRDNAKNTVYLEMNSLKPEDTAVYYCAAGHRLPVYYGYPRATYNYWGQGTQVTVSS | low polyreactivity |
| QVQLVESGGGLVQAGGSLRLSCAASGRIFTVNAMGWYRQAPGKERELVAAISKSGGRTYYADSVKGRFTISRDNAKNTVYLQMNSLKPEDTAVYYCAKRVRTGSVGNFNYWGLGTQVTVSS | high polyreactivity |
| QVQLVESGGGLVQAGGSLRLSCAASGRIFTVNTMGWYREAPGKERELVASIRGGGSTNYADSVKGRFTISRDNAKNTVYLQMNSLKPEDTAVYYCAAGTSKPTPIYGYWGQGTQVPVSS | low polyreactivity |
| QVQLVESGGGLVQAGGSLRLSCAASGRIFTVYAMGWYRQAPGQERELVAAISRGGSTYADSVKGRFTISRDNAKISVYLQMNSLKPEDTAVYYCAAVNFRKGEDYWGQGTQVTVSS | high polyreactivity |
| QVQLVESGGGLVQAGGSLRLSCAASGRIFTWNGMGWYRQATGKERELVAAITSGGRTYADSVKGRFTISRDNAKNTVYLQMNSLKPEDTAVYYCAADVRRRYIWYDYWGQGTQVTVSS | high polyreactivity |
| QVQLVESGGGLVQAGGSLRLSCAASGRIFTWYAMGWYRQAPGKERELVAAISWSGGRTYYADSVKGRFTISRDYSKNTVYLQMNSLKPEVTAVYYCAAREPGRTLDYLGQGTQVTVSS | high polyreactivity |
| QVQLVESGGGLVQAGGSLRLSCAASGRIFTYNAMGWSRQAPGKERELVATITNGGRTYYADSVKGRFTISRDNAKNTVYLQMNSLKPEDTAVYYCNAGYITYWYAVFYQIDDYWGQGTQVTVSS | low polyreactivity |
| QVQLVESGGGLVQAGGSLRLSCAASGRIFTYNAMGWYRQAPGKERELVAAISTRGGTTRYADSVKGRFTISRDNAKNTVYLQMNSLKPEDTAVYYCNAVSRGSRWDGLVRLDYWGQGTQVTVSS | high polyreactivity |
| QVQLVESGGGLVQAGGSLRLSCAASGRIFTYNAMGWYRQAPGKERELVAVISRRGGSTYYADSVKGRFTISRDYAKNTVYFQMNSLKAEDTAVYYCAGDLPSYPYEYWGQGTQVTVSS | low polyreactivity |
| QVQLVESGGGLVQAGGSLRLSCAASGRIFTYYAMGWYRQAPGKERELVAAISRRGGSTYYADSVKGRFTISRDNAKNTVYLQMNSLKPEDTAVYYCNAPTKAGGSHYWGQGTQVTVSS | high polyreactivity |
| QVQLVESGGGLVQAGGSLRLSCAASGRIFTYYAMGWYRQAPGKERELVAAITSRGGRTYYADSVKGRFTISRDNAKNTVYLQMNSLKPEDTAVYYCNVDRWRRTISHDIYGYWGQGTQVTVSS | high polyreactivity |
| QVQLVESGGGLVQAGGSLRLSCAASGRIFTYYAMGWYSQAPGKERELVAAISRSGGRTYYADSVKGRFTISRDNAKNTVYLQMNSLTPEDTAVYYCAADRLSLRAYDYWGQGTQVTVSS | high polyreactivity |
| QVQLVESGGGLVQAGGSLRLSCAASGRIFTYYAMRWYRQAPGKERELVAGITGSGASTYYADSVKGRFTISRDNAKNTVYLQMNSLKPEDTAVYYCNAPYVIRPFRGRYDYWGQGTLVTVSS | high polyreactivity |
| QVQLVESGGGLVQAGGSLRLSCAASGRIFTYYDMGWYREAPGKERELVAAITWGGGSTYYADSVKGRFTISRDNAKNSVYLQMNSLKPEDSAVYYCATLYYTFVWRHDYWGQGTQVTVSS | low polyreactivity |
